The RNAGym collection of RNA variant scans (doi:10.1073/pnas.2313332121)

B1: TPR t1 (parent)
chain: GACCAAUCUGCCCUCAGAGCUCGAGAACAUCUUCGGAUGCAGAGGAGGCAGGCUUCGGUGGCGCGAUAGCGCCAACGUCCUCAACCUCCAAUGCAUCCCACCACAUGAUGAUGCCUGAAGAGCCUUGGUUUUUUG

Variants of: B1
Assay: polymerase ribozyme fitness, log enrichment relative to wild type (log ratio); higher = more active; in vitro selection for triplet polymerase activity
Summary of the method: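 Genotype fitness is the logarithm of its enrichment divided by wild-type enrichment, using inverse-variance-weighted averages of replicates. That logarithm is base 2. Enrichment was measured by Illumina sequencing of input and output libraries from one triplicate in vitro selection round, with frozen incubation at −7 °C, on PCR-built, transcribed mutant libraries of each subunit of a heterodimeric triplet polymerase ribozyme, retaining genotypes with ≥10 input reads and ≥1 read per output.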

Variant	polymerase ribozyme fitness (log ratio)
C12U G71C	-0.564
C13A G23A A66G G69A U78C C85U A90U U96G C123U	-6.29
C12U G77C	0.201
C13A C70A	-3.18
C13A G19A G52C C76G A118U C124A U133A	-4.56
C13G C64U	-0.666
C12U U38G G63U	-1.77
C12U G135U	0.000607
C13A C28G C49A A75U A103G G107U U112C	-6.59
C13G C53G G63A	-2.67
C13A C62G	-2.67
C13G A83U A95C G110A G120U	-3.42
C13A A37C A118U	-1.38
C13G C40A G63C G117U U133G	-6.59
C12U G69A	-2
C13G C22A G45U G77A A111U	-6.13
C13G C56A A74G C101G U112C U130A	-3.67
C13A G36C G60U A66U A95C	-6.15
C13A C70G C123A	-2.2
C13G C15A U106A C123A	-1.05
C13A C20A	-3.84
C13G C15A A18C C79U G120U	-2.11
C13G C98U	-2.7
C12U G113A U125A	-0.67

Variant	polymerase ribozyme fitness (log ratio)
C13A G57C C85G C123U	-1.45
C13A C34A G69A U96A C115A	-7.14
C13A G61A C82U C124U	-0.178
C13A C20U G42U G44A C102U G127C	-6.04
C13G A26C C40U C79U C85U G120C	-6.15
C13G C114U	-2.83
C12U U112C	1.26
C13A A119U	0.145
C13G G23U A29C G69A C97A U112G U126G	-6.55
C12U G57C	0.562
C12U G61U A105U	-1.42
C12U U54A C56A A91C C115U	-1.35
C13A A43C G44A C72U C76U U126A	-5.92
C13A C20U C72U	-2.59
C13A A100U	-2.85
C13A U38A C53U C89A	-4.39
C13A G17C	-4.33
C13A G110C	-4.52
C13A G71A G120A A121U	-0.704
C13A U32C A100C	-2.75
C13A A90G A95G U133G	-1.7
C13A G47A	-2.5
C13A G61U A91U	-2.53
C13G A41C C97A C115A G128A	-7.05

Variant	polymerase ribozyme fitness (log ratio)
C12U U14G U32C G51A C56U G57U G127A	-5.28
C12U U133G	-0.256
C12U U92G U96A	-2.63
C13A G44C C56U C124A	0.969
C13A C53A C115U A119U	0.949
C13G A119U	0.114
C13A A50U C72A	-3.71
C13G A83C A121G	1.65
C12U G63U U78A C79U	0.0353
C12U U21G C88U	-2.37
C13A C62U C89A	-3.31
C13A C15U G47C C114A U130C	-6.45
C13A A29G U32A G39A G120A U126A U130G U134C	-2.77
C13A C123U	0.793
C13A C123G	-0.0402
C13A A111C	-1.39
C13A A111U	-4.17
C13A A46G U125G	-3.19
C13A A29G C73G C79U U125G	-4.63
C13A A27C U129A	-5.35
C13G C72U	-1.8
C12U G51A G71C C79U C101A	-5.68
C12U G48U	-0.505
C12U G120A	1.63

Variant	polymerase ribozyme fitness (log ratio)
C12U G120C	2
C13A C62A G120U	-1.17
C12U G63A U106G	-3.38
C12U U78C G110U	-1.38
C13A C40A C56U	-2.79
C13A G60C A84G	-2.96
C13A G120A	-0.19
C13G C101A	-2.61
C13A G23U G61C C88U C98G U112A G113A	-5.88
C13A G39C U59G C104U	-1.47
C13G C62G G117C	-8.19
C13G A37C U112C	-0.647
C13G C53A	-1.86
C13A U129A	-2.8
C13A C56G C89A A90U	-3.98
C13A A16U C101G	-4.02
C12U G63U C70A C82A C115A G128A	-1.07
C13G C124A	1.06
C13G C124G	0.288
C13A C56U	-1.43
C13G A66U	-2.18
C13G C104U C123A U125G	0.46
C13G C62U A100C U112C	-1.47
C13A G61A A66U A121U U129G	-0.637

Variant	polymerase ribozyme fitness (log ratio)
C13G A50G G51C G57U A74U	-3.43
C12U G61U U109G G120U	-4.29
C13G A37U U38C C62U	-4.23
C12U G60C U109G	-4
C13A G58C	-1.37
C13G A37G A41C A121U	-0.739
C13G A43U C101U	-3.57
C13A G39U C56A	-2.45
C13G C104A G110U	-6.08
C12U G65U	-4.93
C13A C94A C124A	0.414
C13G A37G G48C	-3.17
C13A A27C C70U	-5.92
C13G C85U	-2.91
C13G C40U G47C C62U U78A	-3.84
C13A A46U	-3.23
C12U G71A C94U	-1.26
C13A G36A C72U A121C G127U	-0.199
C13A U106A G110A	-2.53
C13A G52A G128C	-4.3
C13A A29G C53U U106C	-5.28
C13A C40A	-2.4
C13G A50G G71A U106A C124A G127U	-0.731
C13G A90U C124U U129C	-3.28

Variant	polymerase ribozyme fitness (log ratio)
C13G C49G	-2.28
C13A C72G C94A C124A	0.278
C13A C86A	-3.09
C12U G63A C124G G127U	1.79
C12U U38C G107A G117C C123A	-5.15
C12U G48A U54G A121U U129G	0.00313
C12U G71C C82G	-1.53
C13G C40G C123G	-0.377
C13G A43G	-3.37
C13G A16C C85G A121C	-3.75
C13A G42A G77U U131C	-3.87
C13A U112A	-0.401
C13G C82A C102A U130G	-4.93
C13G C124G U126A U131A	-0.0429
C13G A26U G47A C82U	-5.11
C13A G60U A91U G120A	-2.31
C13G C104U	-0.77
C13G G17U C64U G93C	-4.19
C13A G61C	-1.81
C13G A108G	-3.4
C13A G63A	-2.44
C13G C86G A90C A95G	-4.51
C12U U33G C62G A105U U112G U125A	-6.16
C13G C56A	-1.9

Variant	polymerase ribozyme fitness (log ratio)
C12U U21A C62G C104U	-2.05
C12U U14A C40A A105C	-3.92
C12U U87C	1.04
C13G C34G	-5.23
C13G A50U G61U	-3.51
C13G C53G C115A	-1.47
C13A G39C G120A	-0.0336
C13A G51U	-5.64
C13A A16G G61A C79G G113C	-5.27
C13G C73U U78C A121C	-0.0893
C13G C88A U130G	-3.24
C13G C28G G42C	-6.24
C12U G61U C88A	-0.482
C13A C76G	-2.51
C12U G51A C101U	-2.14
C13A C72U	-1.96
C12U G52A G63C U112A G120A	-0.326
C12U U55C G71A A90G G113U	-2.97
C13A C124U U132A	-1.61
C12U U14A C40A C72U A105C	-4.37
C12U U130G	0.00659
C13A C104U A118C C124A	-0.374
C13A A75U U125A	-2.12
